# Measured values as given in patent US7326418B2, “Identification of novel factors that block programmed cell death or apoptosis by targeting JNK” (University of Chicago, priority 2001, dated 2008).
# T1: JNKK1 (Mus musculus, UniProt P47809)
# T1 construct: plasmids encoding full-length (FL) human ASK1, MEKK4, JNKK1, and JNKK2; made in house; host or cells: TNT coupled reticulocyte lysate (Promega), in vitro transcription/translation from pBS
# T1 sequence (P47809 2-397): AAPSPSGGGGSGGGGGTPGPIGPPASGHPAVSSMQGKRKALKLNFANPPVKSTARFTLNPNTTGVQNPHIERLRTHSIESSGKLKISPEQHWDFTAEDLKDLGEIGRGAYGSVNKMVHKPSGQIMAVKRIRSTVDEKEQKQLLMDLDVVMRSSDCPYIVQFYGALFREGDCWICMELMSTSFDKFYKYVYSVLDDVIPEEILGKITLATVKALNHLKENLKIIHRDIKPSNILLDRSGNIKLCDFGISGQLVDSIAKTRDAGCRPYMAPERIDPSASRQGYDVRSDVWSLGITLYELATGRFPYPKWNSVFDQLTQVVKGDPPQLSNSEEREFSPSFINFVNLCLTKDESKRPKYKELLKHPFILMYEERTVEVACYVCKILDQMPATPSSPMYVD
# B1: GST-Gadd45β: full-length murine Gadd45β directly fused to GST, purified from E. coli (protein)
# chain: MTLEELVASDNAVQKMQAVTAAVEQLLVAAQRQDRLTVGVYEAAKLMNVDPDSVVLCLLAIDEEEEDDIALQIHFTLIQSFCCDNDIDIVRVSGMQRLAQLLGEPAETLGTTEARDLHCLLVTNCHTDSWKSQGLVEVASYCEESRGNNQWVPYISLEER
# modifications: left off: a dimerising Fc or GST
# notes: full-length murine Gadd45β directly fused to GST, purified from E. coli
# Biological target: T1, JNKK1
# Assay: GST pull-down, GST-Gadd45β beads with in vitro translated 35S-labeled JNKK1
# Format: binding, murine
# Protocol: To confirm the above interactions, in vitro, GST pull-down experiments were performed. pBluescript (pBS) plasmids encoding full-length (FL) human ASK1, MEKK4, JNKK1, and JNKK2, or polypeptides derived from the amino- or carboxy-terminal portions of ASK1 (i.e. N-ASK1, spanning from amino acids 1 to 756, and C-ASK1, spanning from amino acids 648 to 1375) were transcribed and translated in vitro using the TNT coupled retyculocyte lysate system (Promega) in the presence of ^35S-methionine. 5 μl of each translation mix were incubated, in vitro, with sepharose-4B beads that had been coated with either purified glutathione-S-transferase (GST) polypeptides or GST-Gadd45β proteins. The latter proteins contained FL murine Gadd45β directly fused to GST. Binding assays were performed according to standard procedures, and ^35S-labeled proteins that bound to beads, as well as 2 μl of each in vitro translation mix (input), were then resolved by SDS polyacrylamide gel electrophoresis. Asterisks indicate the intact translated products. […] Thus, GST pull-down experiments confirmed the strong interaction between Gadd45β and JNKK2 observed in vivo, as well as the weaker interactions of Gadd45β with other kinases in the JNK pathway. These assays also uncovered a weak association between Gadd45β and JNKK1. […]
molecule,measurement,value
B1,association with JNKK1,weakly
